Experimental data from patent US20080207501A1 (published 2008).
Ends that are not written are not given here.

T1: amylin receptor (nucleus accumbens membranes prepared from rat brain) (rat, UniProt P32214 25-516)
T1 chain 1: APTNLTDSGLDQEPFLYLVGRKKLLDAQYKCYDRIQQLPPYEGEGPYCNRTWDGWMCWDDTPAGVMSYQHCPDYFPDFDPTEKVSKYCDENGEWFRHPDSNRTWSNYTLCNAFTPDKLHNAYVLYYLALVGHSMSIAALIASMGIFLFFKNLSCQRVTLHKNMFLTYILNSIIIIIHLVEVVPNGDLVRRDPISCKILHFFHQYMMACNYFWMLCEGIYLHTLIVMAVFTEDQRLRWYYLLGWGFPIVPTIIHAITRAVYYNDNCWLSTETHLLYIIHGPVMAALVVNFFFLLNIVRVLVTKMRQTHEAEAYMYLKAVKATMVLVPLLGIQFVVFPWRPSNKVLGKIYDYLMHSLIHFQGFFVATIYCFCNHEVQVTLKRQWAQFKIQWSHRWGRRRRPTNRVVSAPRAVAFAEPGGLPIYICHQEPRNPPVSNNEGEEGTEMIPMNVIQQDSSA
T1 chain 2: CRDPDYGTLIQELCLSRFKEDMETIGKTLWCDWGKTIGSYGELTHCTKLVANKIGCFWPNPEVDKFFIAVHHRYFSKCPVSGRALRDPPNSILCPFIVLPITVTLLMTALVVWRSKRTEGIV


Target: T1, amylin receptor (nucleus accumbens …)
Assay: radioligand binding assay (displacement of radiolabeled amylin)

EC50 | Binder
> 100 nM | CGNLSTCMLGTYTQDFNKFHTFPQTAIGVGAP-NH2 (ends and bridges not checked) [Human Calcitonin]
2.9 nM | TQAQLLRVGCVLGTCQVQNLSHRLWQLMGPAGRQDSAPVDPSSPHSY-NH2 (ends and bridges not checked) [Human AFP-6 [1-47]]
